In article PMC8016135, “Observation of arenavirus nucleoprotein heptamer assembly” (FEBS Open Bio, 2021):

Biological target: the molecule itself
Assay: negative stain transmission electron microscopy

B1: Mopeia virus nucleoprotein (natural protein, UniProt P19239 1-570, looked up)
chain: MSNSKEVKSFLWTQSLRRELSGYCSNIKIQVIKDAQALLHGLDFSEVANVQRLMRKEKRDDSDLKRLRDLNQAVNNLVELKSVQQKNVLRVGTLTSDDLLVLAADLDRLKAKVIRGERPLAAGVYMGNLTAQQLEQRRVLLQMVGMGGGFRAGNTLGDGIVRVWDVRNPELLNNQFGTMPSLTIACMCKQGQADLNDVIQSLSDLGLVYTAKYPNMSDLDKLSQTHPILGIIEPKKSAINISGYNFSLSAAVKAGACLIDGGNMLETIKVTKSNLEGILKAALKVKRSLGMFVSDTPGERNPYENLLYKLCLSGEGWPYIASRTSIVGRAWDNTTVDLSGDVQQNAKPDKGNSNRLAQAQGMPAGLTYSQTMELKDSMLQLDPNAKTWIDIEGRPEDPVEIAIYQPNNGQYIHFYREPTDIKQFKQDSKHSHGIDIQDLFSVQPGLTSAVIESLPKNMVLSCQGADDIRKLLDSQNRRDIKLIDVSMQKDDARKFEDKIWDEYKHLCRMHTGIVTQKKKRGGKEEVTPHCALLDCLMFEAAVIGSPQIPTPRPVLSRDLVFRTGPPRVVL
notes: Nucleoprotein (NP, ~63 kDa) of Mopeia virus (MOPV), full length; also called MOPV-NP; MOPV NP; not shown: thioredoxin, N-terminal, cleaved; His6, N-terminal, cleaved
stoichiometry N: 7
